The supplement of paper PMC9732359
± gives the uncertainty stated by the source.

Experiment: protein stability index of a GFP-peptide fusion (yeast GPS) (PSI 1-4); higher = more stable; sorted into four equal gates, so the index is relative within each strain
Method in brief: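 Tiled 17-residue peptides from yeast proteins were fused downstream of GFP on a plasmid that also expresses Cherry, and the pooled library was carried in yeast. Mid-log cultures grown in leucine-free medium were sorted into four equal gates by GFP/Cherry fluorescence ratio. Plasmids from each gate were PCR-amplified and Illumina-sequenced, and reads were assigned to strains by barcodes. Each peptide's protein stability index is the sum, over gates, of the gate's read frequency multiplied by its gate number.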

| Sequence | protein stability index (doa10∆) | protein stability index (pdr5∆) | protein stability index (san1∆) | protein stability index (ubr1∆) |
| --- | --- | --- | --- | --- |
| PTVKYNRKVRAGRGFTL [RPL13A] | 2.62 ± 0.059 | 2.87 ± 0.058 | 2.94 ± 0.045 | 2.78 ± 0.053 |
| PVLNLDKLWTLIPEDKR [RPL28] | 1.54 ± 0.056 | 1.45 ± 0.058 | 2.04 ± 0.071 | 1.17 ± 0.036 |
| PVLSTIAFLVGLVNPKT [SWI3] | 2.98 ± 0.085 | 2.52 ± 0.058 | 2.33 ± 0.066 | 2.86 ± 0.042 |
| PVNTGVLHVSAKGKSGV [RRP40] | 2.48 ± 0.1 | 2.1 ± 0.097 | 2.62 ± 0.14 | 2.64 ± 0.13 |
| PVPSDSTRKKGGRRGRR [RPS14B] | 3.22 ± 0.092 | 3.45 ± 0.074 | 3.31 ± 0.069 | 3.27 ± 0.071 |
| PVRTIVPISTSQTNNSF [SIR4] | 2.04 ± 0.04 | 2.2 ± 0.047 | 2.22 ± 0.052 | 2.28 ± 0.034 |
| PWVVYLQILAMLLLNIF [YMR129W/POM152] | 1.19 ± 0.1 | 1.96 ± 0.072 | 1.18 ± 0.16 | 1.16 ± 0.08 |
| PYEMYKYVHVSEVGNCS [FAS2] | 2.23 ± 0.056 | 2.53 ± 0.062 | 2.11 ± 0.068 | 2.11 ± 0.048 |
| QAIITERLVEFSNVNEL [YIL149C/MLP2] | 2.72 ± 0.19 | 3.38 ± 0.1 | 3.58 ± 0.15 | 3.31 ± 0.12 |
| QAIKEASYVNIPVIALT [RPS0A] | 2.07 ± 0.068 | 2 ± 0.061 | 2.15 ± 0.12 | 1.78 ± 0.057 |
| QAISYLHKLQRMRLRAL [GRR1] | 1.77 ± 0.057 | 1.74 ± 0.053 | 1.8 ± 0.055 | 1.49 ± 0.028 |
| QANQVKRHSYAQSSHIR [RPS1A] | 2.528 ± 0.023 | 2.622 ± 0.021 | 2.564 ± 0.025 | 2.471 ± 0.019 |
| QANTEPENITKREASRG [MCD1] | 3.01 ± 0.079 | 2.84 ± 0.073 | 3.03 ± 0.06 | 3.13 ± 0.047 |
| QAPKQRRRTYRAHGRIN [RPL17A] | 2.06 ± 0.29 | 2.64 ± 0.12 | 1.9 ± 0.18 | 2.09 ± 0.091 |
| QARIILNHILEKSTQLQ [YGR119C/NUP57] | 2.83 ± 0.12 | 3.09 ± 0.072 | 2.63 ± 0.12 | 2.79 ± 0.043 |
| QARTATLKYICAECSSK [RPC10] | 2.72 ± 0.12 | 2.98 ± 0.1 | 2.84 ± 0.065 | 2.79 ± 0.073 |
| QCCEFMTMLTPNYLHLV [YML103C/NUP188] | 2.23 ± 0.05 | 1.77 ± 0.045 | 1.66 ± 0.084 | 1.68 ± 0.041 |
| QDSIFQRIIADLSADKP [SRB8] | 2.63 ± 0.046 | 2.56 ± 0.057 | 2.59 ± 0.048 | 2.52 ± 0.032 |
| QDVAAKCKEVGITAVHV [RPS14B] | 2.44 ± 0.059 | 2.7 ± 0.068 | 2.8 ± 0.065 | 2.18 ± 0.037 |
| QDVDDAHAIDQMTWRQW [POP8] | 2.1 ± 0.058 | 1.99 ± 0.052 | 1.78 ± 0.069 | 2.5 ± 0.076 |
| QEAFKIYQHLASHNEKD [SRP72] | 1.89 ± 0.082 | 3.08 ± 0.1 | 2.93 ± 0.15 | 2.89 ± 0.1 |
| QEEFVQFLQLDNDGFSF [ECM29] | 1.9 ± 0.087 | 3.13 ± 0.12 | 1.93 ± 0.11 | 2.41 ± 0.11 |
| QEPFLNSSNYAELFNND [PRP8] | 2.61 ± 0.051 | 2.86 ± 0.046 | 2.55 ± 0.071 | 2.82 ± 0.048 |
| QEQLKNVKNDVSFNDSQ [YIL149C/MLP2] | 3.27 ± 0.061 | 3.5 ± 0.066 | 3.08 ± 0.083 | 3.31 ± 0.053 |
| QERQRQIQKNGPEITPE [PRP8] | 2.88 ± 0.11 | 3.2 ± 0.11 | 2.77 ± 0.11 | 2.85 ± 0.092 |
| QESFVPNSERSGTPTLK [YOR098C/NUP1] | 3.03 ± 0.16 | 2.25 ± 0.15 |  | 1.79 ± 0.19 |
| QEYLNPVIDTQIANEFN [YDL116W/NUP84] | 2.85 ± 0.053 | 2.96 ± 0.058 | 2.71 ± 0.046 | 2.88 ± 0.052 |

| Sequence | protein stability index (doa10∆) | protein stability index (pdr5∆) | protein stability index (san1∆) | protein stability index (ubr1∆) |
| --- | --- | --- | --- | --- |
| QFKTTIKDTANDNDITV [UBP6] | 2.45 ± 0.11 | 2.09 ± 0.074 | 2.19 ± 0.084 | 1.67 ± 0.041 |
| QFLRLIFVSILSDRANK [ARP9] | 1.64 ± 0.065 | 1.65 ± 0.075 | 2.18 ± 0.087 | 1.2 ± 0.027 |
| QFTGFLLHEMTQTYMQM [GRR1] | 1.92 ± 0.054 | 2.08 ± 0.036 | 2.2 ± 0.051 | 1.9 ± 0.041 |
| QGDEALSVDDIRGAVGN [RTT102] | 3.35 ± 0.096 | 3.49 ± 0.12 | 3.24 ± 0.059 | 3.41 ± 0.085 |
| QGEVGAVFIVPKILIRE [SWP82] | 2.03 ± 0.14 | 2.36 ± 0.21 | 1.69 ± 0.15 | 2.13 ± 0.2 |
| QGFSKDTFELIKTFLVD [YDL116W/NUP84] | 3.02 ± 0.079 | 3.26 ± 0.063 | 2.75 ± 0.062 | 3.25 ± 0.043 |
| QGGFYKQQDAEELFTQL [UBP6] | 3.38 ± 0.078 | 3.44 ± 0.12 | 3.07 ± 0.097 | 3.21 ± 0.075 |
| QGKSKLIIIAANTPVLR [RPL30] | 2.91 ± 0.093 | 3.08 ± 0.12 | 2.96 ± 0.065 | 2.99 ± 0.078 |
| QGLKLAKKHKLNAITLD [SMC3] | 2.4 ± 0.21 | 2.64 ± 0.29 |  |  |
| QGPRSYFLDVKCPGCLN [RPS27A] | 2.93 ± 0.097 | 3.38 ± 0.1 | 3.13 ± 0.08 | 2.6 ± 0.11 |
| QGRDTSKLPDPERWLPL [SRP72] | 3.33 ± 0.16 | 2.86 ± 0.21 | 3.31 ± 0.13 | 2.93 ± 0.17 |
| QGSMSERPPYILNSYGV [SIR2] | 2.73 ± 0.072 | 3.03 ± 0.084 | 3 ± 0.066 | 2.87 ± 0.045 |
| QGTNSVPNSIGNIFSNI [SNF5] | 2.91 ± 0.068 | 3.12 ± 0.095 | 3.15 ± 0.12 | 2.98 ± 0.052 |
| QHQRIVAFVCSPISDSR [RPN10] | 1.92 ± 0.097 | 3.12 ± 0.11 | 1.48 ± 0.15 | 2.3 ± 0.16 |
| QIENLNEVCLEKENRFE [SMC4] | 3.27 ± 0.17 | 3.48 ± 0.1 | 2.69 ± 0.23 | 3.4 ± 0.068 |
| QILPESQWNDSSIDKIE [SIR3] |  | 3.42 ± 0.18 |  | 2.81 ± 0.12 |
| QILTVDPKTSLRIVKPT [RPC82] | 3.07 ± 0.21 | 2.99 ± 0.19 | 3.09 ± 0.12 |  |
| QINKAQILENYNALFQQ [YJL039C/NUP192] | 2.81 ± 0.068 | 3.12 ± 0.058 | 2.73 ± 0.065 | 3.03 ± 0.047 |
| QIPLHRAASVGSLKLIE [NAS6] | 2.04 ± 0.078 | 2.16 ± 0.084 | 2.23 ± 0.14 | 1.83 ± 0.1 |
| QIPVYDTFDGSDLRVLS [FAS1] | 2.7 ± 0.081 | 2.92 ± 0.059 | 2.53 ± 0.069 | 2.69 ± 0.058 |
| QIQKNGPEITPEEATTI [PRP8] | 2.85 ± 0.26 | 2.98 ± 0.15 | 2.83 ± 0.16 | 3.12 ± 0.16 |
| QITLTFISELCSIEPIA [YML103C/NUP188] | 1.27 ± 0.035 | 1.46 ± 0.052 | 1.48 ± 0.085 | 1.82 ± 0.055 |
| QIVSYCSNNKNSIKNVP [SSN2] | 1.65 ± 0.083 | 2.14 ± 0.096 | 1.4 ± 0.096 | 1.79 ± 0.083 |
| QIYTQRAYMRPLGVILT [SCL1] | 1.8 ± 0.053 | 1.38 ± 0.06 | 1.43 ± 0.12 | 1.64 ± 0.036 |
| QKEQNVNNRDSEKGFSK [YCS4] | 2.91 ± 0.071 | 3.11 ± 0.063 | 2.41 ± 0.061 | 2.97 ± 0.036 |
| QKKATMSAEEALVYSYI [RPC34] | 1.43 ± 0.14 | 1.08 ± 0.099 |  | 1.36 ± 0.22 |
| QKSVSLLSSESNIPTLI [YDL116W/NUP84] | 2.73 ± 0.056 | 2.69 ± 0.065 | 2.8 ± 0.039 | 2.67 ± 0.05 |
